B1: NET1 (parent)
chain: RVRPLARVTSLANLISPVRNGAVR

Variants of: B1
Assay: protein stability index of a GFP-peptide fusion (GPS, HEK-293T) (PSI 1-6); higher = more stable
Conditions: c terminus: a fixed tail appended
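Further: lentivirally expressed fusions sorted by FACS into six bins by GFP to DsRed ratio, PSI derived from sequencing read proportions per bin multiplied by bin number.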

First: RVRPLARVTSLANLIMPVRNGAVR [S16M]
Second: RVRPLARVTSLANLINPVRNGAVR [S16N]
The protein stability index of the first is lower: 2.31 for the first, 3.23 for the second.

Compared with RVRPLARVTSLANLIPPVRNGAVR [S16P], RVRPLARVTSLANLIQPVRNGAVR [S16Q] is higher in protein stability index: 3.32 for the first, 3.76 for the second.

Compared with RVRPLARVTSLANLIRPVRNGAVR [S16R], RVRPLARVTSLANLITPVRNGAVR [S16T] is higher in protein stability index: 3.03 for the first, 3.56 for the second.

Going from RVRPLARVTSLANLIVPVRNGAVR [S16V] to RVRPLARVTSLANLIWPVRNGAVR [S16W], the protein stability index falls from 2.99 to 2.55.

Compared with RVRPLARVTSLANLIYPVRNGAVR [S16Y], RVRPLARVTSLANLISAVRNGAVR [P17A] is lower in protein stability index: 2.66 for the first, 2.1 for the second.

Going from RVRPLARVTSLANLISCVRNGAVR [P17C] to RVRPLARVTSLANLISDVRNGAVR [P17D], the protein stability index falls from 3.96 to 3.03.

Going from RVRPLARVTSLANLISEVRNGAVR [P17E] to RVRPLARVTSLANLISFVRNGAVR [P17F], the protein stability index falls from 2.4 to 1.56.

Compared with RVRPLARVTSLANLISGVRNGAVR [P17G], RVRPLARVTSLANLISHVRNGAVR [P17H] is higher in protein stability index: 2.14 for the first, 2.15 for the second.

First: RVRPLARVTSLANLISIVRNGAVR [P17I]
Second: RVRPLARVTSLANLISKVRNGAVR [P17K]
The protein stability index of the first is lower: 2.24 for the first, 3.09 for the second.

Going from RVRPLARVTSLANLISLVRNGAVR [P17L] to RVRPLARVTSLANLISMVRNGAVR [P17M], the protein stability index rises from 2.03 to 2.17.

Going from RVRPLARVTSLANLISNVRNGAVR [P17N] to RVRPLARVTSLANLISQVRNGAVR [P17Q], the protein stability index falls from 2.81 to 2.29.

Compared with RVRPLARVTSLANLISRVRNGAVR [P17R], RVRPLARVTSLANLISSVRNGAVR [P17S] is higher in protein stability index: 2.24 for the first, 3.45 for the second.

Compared with RVRPLARVTSLANLISTVRNGAVR [P17T], RVRPLARVTSLANLISVVRNGAVR [P17V] is higher in protein stability index: 2.8 for the first, 3.16 for the second.

Going from RVRPLARVTSLANLISWVRNGAVR [P17W] to RVRPLARVTSLANLISYVRNGAVR [P17Y], the protein stability index rises from 1.89 to 2.07.

Compared with RVRPLARVTSLANLISPARNGAVR [V18A], RVRPLARVTSLANLISPCRNGAVR [V18C] is lower in protein stability index: 3.03 for the first, 2.21 for the second.

First: RVRPLARVTSLANLISPDRNGAVR [V18D]
Second: RVRPLARVTSLANLISPERNGAVR [V18E]
The protein stability index of the first is higher: 4.03 for the first, 3.63 for the second.

Going from RVRPLARVTSLANLISPFRNGAVR [V18F] to RVRPLARVTSLANLISPGRNGAVR [V18G], the protein stability index rises from 2.29 to 3.49.

Compared with RVRPLARVTSLANLISPHRNGAVR [V18H], RVRPLARVTSLANLISPIRNGAVR [V18I] is higher in protein stability index: 2.75 for the first, 2.83 for the second.

Compared with RVRPLARVTSLANLISPKRNGAVR [V18K], RVRPLARVTSLANLISPLRNGAVR [V18L] is higher in protein stability index: 2.31 for the first, 2.94 for the second.

First: RVRPLARVTSLANLISPMRNGAVR [V18M]
Second: RVRPLARVTSLANLISPNRNGAVR [V18N]
The protein stability index of the first is lower: 3.07 for the first, 3.2 for the second.

Going from RVRPLARVTSLANLISPPRNGAVR [V18P] to RVRPLARVTSLANLISPQRNGAVR [V18Q], the protein stability index rises from 3.12 to 3.63.

Compared with RVRPLARVTSLANLISPRRNGAVR [V18R], RVRPLARVTSLANLISPSRNGAVR [V18S] is higher in protein stability index: 3.15 for the first, 4.17 for the second.

Compared with RVRPLARVTSLANLISPTRNGAVR [V18T], RVRPLARVTSLANLISPWRNGAVR [V18W] is lower in protein stability index: 3.68 for the first, 2.25 for the second.

Going from RVRPLARVTSLANLISPYRNGAVR [V18Y] to RVRPLARVTSLANLISPVANGAVR [R19A], the protein stability index rises from 2.23 to 2.96.

First: RVRPLARVTSLANLISPVCNGAVR [R19C]
Second: RVRPLARVTSLANLISPVDNGAVR [R19D]
The protein stability index of the first is lower: 2.99 for the first, 3.76 for the second.

Compared with RVRPLARVTSLANLISPVENGAVR [R19E], RVRPLARVTSLANLISPVFNGAVR [R19F] is lower in protein stability index: 3.55 for the first, 2.29 for the second.

First: RVRPLARVTSLANLISPVGNGAVR [R19G]
Second: RVRPLARVTSLANLISPVHNGAVR [R19H]
The protein stability index of the first is higher: 3.4 for the first, 2.69 for the second.

Going from RVRPLARVTSLANLISPVINGAVR [R19I] to RVRPLARVTSLANLISPVKNGAVR [R19K], the protein stability index falls from 3.02 to 2.59.

Compared with RVRPLARVTSLANLISPVLNGAVR [R19L], RVRPLARVTSLANLISPVMNGAVR [R19M] is lower in protein stability index: 2.81 for the first, 2.53 for the second.

First: RVRPLARVTSLANLISPVNNGAVR [R19N]
Second: RVRPLARVTSLANLISPVPNGAVR [R19P]
The protein stability index of the first is higher: 3.28 for the first, 2.68 for the second.

First: RVRPLARVTSLANLISPVQNGAVR [R19Q]
Second: RVRPLARVTSLANLISPVSNGAVR [R19S]
The protein stability index of the first is lower: 3.06 for the first, 3.2 for the second.

First: RVRPLARVTSLANLISPVTNGAVR [R19T]
Second: RVRPLARVTSLANLISPVVNGAVR [R19V]
The protein stability index of the first is lower: 3.3 for the first, 3.6 for the second.

First: RVRPLARVTSLANLISPVWNGAVR [R19W]
Second: RVRPLARVTSLANLISPVYNGAVR [R19Y]
The protein stability index of the first is lower: 1.82 for the first, 2.19 for the second.

First: RVRPLARVTSLANLISPVRAGAVR [N20A]
Second: RVRPLARVTSLANLISPVRCGAVR [N20C]
The protein stability index of the first is higher: 2.91 for the first, 2.72 for the second.

First: RVRPLARVTSLANLISPVRDGAVR [N20D]
Second: RVRPLARVTSLANLISPVREGAVR [N20E]
The protein stability index of the first is lower: 3.2 for the first, 3.33 for the second.

Going from RVRPLARVTSLANLISPVRFGAVR [N20F] to RVRPLARVTSLANLISPVRGGAVR [N20G], the protein stability index rises from 2.26 to 2.96.

Going from RVRPLARVTSLANLISPVRHGAVR [N20H] to RVRPLARVTSLANLISPVRIGAVR [N20I], the protein stability index falls from 3.3 to 2.66.

Compared with RVRPLARVTSLANLISPVRKGAVR [N20K], RVRPLARVTSLANLISPVRLGAVR [N20L] is higher in protein stability index: 2.49 for the first, 3.29 for the second.

Compared with RVRPLARVTSLANLISPVRMGAVR [N20M], RVRPLARVTSLANLISPVRPGAVR [N20P] is higher in protein stability index: 2.54 for the first, 2.94 for the second.

First: RVRPLARVTSLANLISPVRQGAVR [N20Q]
Second: RVRPLARVTSLANLISPVRRGAVR [N20R]
The protein stability index of the first is higher: 3.75 for the first, 2.57 for the second.

First: RVRPLARVTSLANLISPVRSGAVR [N20S]
Second: RVRPLARVTSLANLISPVRTGAVR [N20T]
The protein stability index of the first is lower: 2.74 for the first, 2.79 for the second.

Going from RVRPLARVTSLANLISPVRVGAVR [N20V] to RVRPLARVTSLANLISPVRWGAVR [N20W], the protein stability index falls from 2.64 to 2.33.

First: RVRPLARVTSLANLISPVRYGAVR [N20Y]
Second: RVRPLARVTSLANLISPVRNAAVR [G21A]
The protein stability index of the first is lower: 2.52 for the first, 3.62 for the second.

First: RVRPLARVTSLANLISPVRNCAVR [G21C]
Second: RVRPLARVTSLANLISPVRNDAVR [G21D]
The protein stability index of the first is higher: 2.75 for the first, 2.55 for the second.

Going from RVRPLARVTSLANLISPVRNEAVR [G21E] to RVRPLARVTSLANLISPVRNFAVR [G21F], the protein stability index falls from 3.08 to 2.42.

First: RVRPLARVTSLANLISPVRNHAVR [G21H]
Second: RVRPLARVTSLANLISPVRNIAVR [G21I]
The protein stability index of the first is lower: 2.85 for the first, 2.87 for the second.

Compared with RVRPLARVTSLANLISPVRNKAVR [G21K], RVRPLARVTSLANLISPVRNLAVR [G21L] is lower in protein stability index: 2.71 for the first, 2.68 for the second.
